From patent publication CN118126168A

Experiments:
[1] = substrate: 禽流感病毒NP蛋白 (avian influenza virus)
indirect ELISA = substrate: 禽流感病毒NP蛋白 (avian influenza virus); assay: indirect ELISA

B1: 禽流感病毒NP蛋白的单克隆抗体 (antibody, V domains shown)
VH: EVRLQESRPELVEPGASVKISCNASAYTFSDYWMNCVKQSHGKSLECIGDISPTYDRTSYNHKFKGYATLTVDKSSSSAYIELRSLTSDDSAVYYCARGGYGNYRDYWGKRTTRTVSS
VL: MKYLLATAAAGILLLAAQPAMADVVMSQTTRTLSVSIEQPASISCKSSQSLLHSDGKSYLNWLLQRPRQSPKCLSYLVSRRDSGVPDRVTGSSSGTDVTLGISSVEAEDLRVYYYWQRTHCPITVGSGTKLDIK
With B1 the 试纸条灵敏度 (lowest NP concentration detected) [1] was 0.18 µg/mL and the ELISA titre (dilution still positive) (fold dilution) (indirect ELISA) was over 102000.
